# Experiment: soluble on expression in E. coli; label from the status in PepcDB or PDB records
row,Sequence,soluble on expression in E. coli
1,MSLRLQFQLKVDGLEDESLVVRGFEGQESLSDSVWRCEPCYGFRYQVDLASALSNLTAEQFVDQTAHLTILRDGQVVQQINGIVRQLSKGDTGHRHTFYSLTLVPALERLSLRSNSRIFQQQSVPEIISILLQEMGIEDYAFALKRECAQREFCVQYRETDLQFLHRIAAEEGLVYSHLHEAQKHTLLFTDSSDSQPKLAKPVPYNALAGGEINLPYVVDLQFKTTAQVSHTELKDYSFKKPAYGFTQRTQGKDIAYQQPNYEHFDAPGRYKDDANGKAFSQIRLEYLRRDALLADAKSDEPLLLAGVRFDLQDHLDHAMNRDWLVVQANHQGTQPQALQEEGGSGATTYSNQLKLIPAHITWRARPCAKPQVDGPMIATVVGPQGEEIYCDNFGRVKVHFPWDRYSSSNEKSSCWVRVAQEWAGSQYGSMAIPRVGHEVIVSFLNGDPDQPIITGRTYHATNTAPYALPDHKTKTVLRTETEGHHHHHH,soluble
2,MSLRMNAMKIISVNVGQPTALQVGQRTAVSGIRKHPVPGRVQVGEKGLEGDHVLNRRYHGGPDQAVYVYTREDYDHWTELLGRALEPGAFGENVLISGAESAEVRVGERFLLGAVEIEVTAPRLPCSTLGARMEDAGFVKRFKAARRPGFYARVLQSGDIGRGDPVTRTPAPDGAPTIGELFDADFAKSHDPAELRAWLTFPLGKRQRKEVEKWLAKAEGEGHHHHHH,soluble
3,MSLRSAYLSTESKIVLDVISVSDTHGWIYGHRHLPEYGDYGTLLSYIERTRQKALESEGRSVLAVDAGDLVEGTGLSDLTKVKGEKILEAASYIGFDLQTIGNHESYYKETTDYIHSKVEALFGDRYITTNVFMRDTNVPVGSGRYKYLVLPTGLRVLMLGFLFHTSPYDGVYTIPAREAIASQEITGVLEKYKYQTDLLVLACHIPTYDLEISEIVTELRAFYNQINYTIPIIIIAGHYHQIKNTYCMDGQDKQCYIVEGGCYLRFMQHVTYEFKPMTYSHEGNTYTGYQFSSVDYSLPYNEGHHHHHH,soluble
4,MSLRSPLEPGAPDALLTVIVIVEHLDHKEEVIVQGREIVPSMDGHFDTIQELNSRFTESAPREKIEIGNRERPFKLHVVNVGDSRAMLVTGESYAALTRDHVPDDPGEWRRIEETGDQVVYSDGCARIRGLAMSRSFGDFVAKEVRTPSPITAKPDIRRFYATWNDVLLLYSDGLHVDGEDWRTNFGMAKQCISSVPKISDVAVCLLQQAYGGGSSDNITVLATKFRKFRRQTSAKLRIFGGLAKSFSEEGHHHHHH,not soluble
5,MSLRTLVAGVDTSTQSCKVRVTDAETGELVRFGQAKHPNGTSVDPSYWWSAFQEAAEQAGGLDDVSALAVGGQQHGMVILDNQGNVIRDAMLWNDTSSAPQAAALIEKLGAAPAQDGEPEDPIARGKQRWVKAVGSSPVASYTLTKVAWVAENEPENVKKIAAICLPHDWLSWRIAGYGPVAEGEDAHLEALFTDRSDASGTIYYDAASNEYRRDLIAMVLEAAEGAKAAQSHAEAIVLPTVLGPRDAAPVKADPAIAGKNVEGGCLLAPGGGDNAMASLGLGMAVGDVSISLGTSGVAAAISENPTYDLTGAVSGFADCTGHYLPLACTINGSRILDAGRAALGVDYDELAKLAFASKPGANGITLVPYFDGERTPNRPNATATFSGMTLANTTRENLARAFVEGLLCSQRDCLELIRSLGASITRILLIGGGAKSEAIRTLAPSILGMDVTRPATDEYVAIGAARQAAWVLSGETEPPAWQLTIDGVETGEPTEAVYEAYAKARGEGHHHHHH,soluble
6,MSLRVFLTGATGFVGSHVLKELLAAGHQVTGLTRSDAGGRWLVQAGASVHRGTLEDAGSLARGAEQADAVIHTAFDHVFSRYLENCAKDARVISAMAEVLKGSNRPLIITSATGIGAPGAGLPAVEEVVDWAHALPRIASERAGREAADKGVSVAVVRLPQVHDTEKQGLISPLIDIGRAKGVSAYVGDGSNHWSAVHIDDAARLYRLALEHHEAGARYHAVAEEGVSMRQIAETIGAGLGVPVLALQADEVVGHFGWLAPFMAMDMRASSAATRRRLNWTPTGPDLLTDLKAMDYRKLRTASEGHHHHHH,soluble
7,MSLRVLIVENEIYLAQSIAAKLSDFGFECEIVSLVNEALREQEYDVVLLSTNVSGQNYYPIIEKHKDSIIILMISYVSDDTVSKPLKAGAKDYILKPFMIDELIRKIEHYRTFQKLKKEVQFYRRYLDFALSDFPSSLNQKLTTPFVIKSSTQKSADAYAIAYAKHKDIPLDFLSIKEGFHWRDKLKRALPCREIKYIVGLEELKKSERKELLEIVAKSCVILSFVSSEEGHHHHHH,not soluble
8,MSLRVRIAVIGKLDGFIKEGIKHYEKFLRRFCKPEVLEIKRVHRGSIEEIVRKETEDLTNRILPGSFVMVMDKRGEEVSSEEFADFLKDLEMKGKDITILIGGPYGLNEEIFAKAHRVFSLSKMTFTHGMTVLIVLEQIFRAFKIIHGENYHYEGGSHHHHHH,soluble

# Source: the DeepSol protein solubility set
